Reference: patent US20240327516A1 (Zymeworks, published 2024)
Read-outs that look alike come from different tables or passages of the source.

B1: v21812, trivalent and bispecific antibody construct [MSLN (2 scFv) x CD3 (1 Fab)] (bispecific antibody, human IgG1, lambda, L234A L235A)
heavy 1: QVQLVQSGAEVKKPGASVKVSCKASGYSFTGYTMNWVRQAPGQGLEWMGLITPYNGASSYNQKFRGKATMTVDTSTSTVYMELSSLRSEDTAVYYCARGGYDGRGFDYWGQGTLVTVSSGGGGSGGGGSGGGGSDIQMTQSPSSLSASVGDRVTITCSASSSVSYMHWYQQKSGKAPKLLIYDTSKLASGVPSRFSGSGSGTDFTLTISSLQPEDFATYYCQQWSGYPLTFGQGTKLEIKAAEPKSSDKTHTCPPCPAPEAAGGPSVFLFPPKPKDTLMISRTPEVTCVVVSVSHEDPEVKFNWYVDGVEVHNAKTKPREEQYNSTYRVVSVLTVLHQDWLNGKEYKCKVSNKALPAPIEKTISKAKGQPREPQVYVLPPSRDELTKNQVSLLCLVKGFYPSDIAVEWESNGQPENNYLTWPPVLDSDGSFFLYSKLTVDKSRWQQGNVFSCSVMHEALHNHYTQKSLSLSPG
heavy 2: not shown
light: NFMLTQPHSVSESPGKTVTISCKRNTGNIGSNYVNWYQQHEGSSPTTIIYRNDKRPDGVSDRFSGSIDRSSKSASLTISNLKTEDEADYFCQSYSSGFIFGGGTKLTVLGQPKAAPSVTLFPPSSEELQANKATLVCLISDFYPGAVTVAWKADSSPVKAGVETTTPSKQSNNKYAASSYLSLTPEQWKSHRSYSCQVTHEGSTVEKTVAPTECS
notes: also called parental construct of v32523; dual scFv trivalent variant
B2: v32523, trivalent and bispecific antibody construct [MSLN (2 scFv) x CD3 (1 Fab)] (bispecific antibody, human IgG1, lambda, L234A L235A)
heavy 1: not shown
heavy 2: DIQMTQSPSSLSASVGDRVTITCSASSSVSYMHWYQQKSGKAPKLLIYDTSKLASGVPSRFSGSGSGTDFTLTISSLQPEDFATYYCQQWSGYPLTFGQGTKLEIKGGGGSGGGGSGGGGSGGGGSQVQLVQSGAEVKKPGASVKVSCKASGYSFTGYTMNWVRQAPGQGLEWMGLITPYNGASSYNQKFRGKATMTVDTSTSTVYMELSSLRSEDTAVYYCARGGYDGRGFDYWGQGTLVTVSSAAEPKSSDKTHTCPPCPAPEAAGGPSVFLFPPKPKDTLMISRTPEVTCVVVSVSHEDPEVKFNWYVDGVEVHNAKTKPREEQYNSTYRVVSVLTVLHQDWLNGKEYKCKVSNKALPAPIEKTISKAKGQPREPQVYVLPPSRDELTKNQVSLLCLVKGFYPSDIAVEWESNGQPENNYLTWPPVLDSDGSFFLYSKLTVDKSRWQQGNVFSCSVMHEALHNHYTQKSLSLSPG
light: B1 light
notes: also called construct v32523; stability engineered construct
B3: Recombinant CD3epsilon/delta Fc fusion protein (Sino Biological) (Fc fusion)
chain 1: DGNEEMGGITQTPYKVSISGTTVILTCPQYPGSEILWQHNDKNIGGDEDDKNIGSDEDHLSLKEFSELEQSGYYVCYPRGSKPEDANFYLYLRARVCENCMEMD
chain 2: FKIPIEELEDRVFVNCNTSITWVEGTVGTLLSDITRLDLGKRILDPRGIYRCNGTDIYKDKESTVQVHYRMCQSCVELDPATVA
notes: also called recombinant CD3 fusion protein
B4: v29191, 2+1 Fab^3 TCB benchmark construct [MSLN (2 Fab) x CD3 (1 Fab)] (bispecific antibody, human IgG1, kappa, L234A L235A)
heavy 1: not shown
heavy 2: QVQLVQSGAEVKKPGASVKVSCKASGYSFTGYTMNWVRQAPGQGLEWMGLITPYNGASSYNQKFRGKATMTVDTSTSTVYMELSSLRSEDTAVYYCARGGYDGRGFDYWGQGTLVTVSSASTKGPSVFPLAPSSKSTSGGTAALGCLVEDYFPEPVTVSWNSGALTSGVHTFPAVLQSSGLYSLSSVVTVPSSSLGTQTYICNVNHKPSNTKVDEKVEPKSCDKTHTCPPCPAPEAAGGPSVFLFPPKPKDTLMISRTPEVTCVVVDVSHEDPEVKFNWYVDGVEVHNAKTKPREEQYNSTYRVVSVLTVLHQDWLNGKEYKCKVSNKALGAPIEKTISKAKGQPREPQVCTLPPSRDELTKNQVSLSCAVKGFYPSDIAVEWESNGQPENNYKTTPPVLDSDGSFFLVSKLTVDKSRWQQGNVFSCSVMHEALHNHYTQKSLSLSPG
light 1: EVQLLESGGGLVQPGGSLRLSCAASGFTFSTYAMNWVRQAPGKGLEWVSRIRSKYNNYATYYADSVKGRFTISRDDSKNTLYLQMNSLRAEDTAVYYCVRHGNFGNSYVSWFAYWGQGTLVTVSSASVAAPSVFIFPPSDEQLKSGTASVVCLLNNFYPREAKVQWKVDNALQSGNSQESVTEQDSKDSTYSLSSTLTLSKADYEKHKVYACEVTHQGLSSPVTKSFNRGEC
light 2: DIQMTQSPSSLSASVGDRVTITCSASSSVSYMHWYQQKSGKAPKLLIYDTSKLASGVPSRFSGSGSGTDFTLTISSLQPEDFATYYCQQWSKHPLTFGQGTKLEIKRTVAAPSVFIFPPSDRKLKSGTASVVCLLNNFYPREAKVQWKVDNALQSGNSQESVTEQDSKDSTYSLSSTLTLSKADYEKHKVYACEVTHQGLSSPVTKSFNRGEC
notes: also called Fab^3 benchmark

Legend:
[1] = target: T1, mesothelin (MSLN) on MSLN-expressing tumor cells (human, UniProt Q13421 296-598)
T1 sequence (Q13421 other isoform, or with tags, fused parts or gaps limits assumed): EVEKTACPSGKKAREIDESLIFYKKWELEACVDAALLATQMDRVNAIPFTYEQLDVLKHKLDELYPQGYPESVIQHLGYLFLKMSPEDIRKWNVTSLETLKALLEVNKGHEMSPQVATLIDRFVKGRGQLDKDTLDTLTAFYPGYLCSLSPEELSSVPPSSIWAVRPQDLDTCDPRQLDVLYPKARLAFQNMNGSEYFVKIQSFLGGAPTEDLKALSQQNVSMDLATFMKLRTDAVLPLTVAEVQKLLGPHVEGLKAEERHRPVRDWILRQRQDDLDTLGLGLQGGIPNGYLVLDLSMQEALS

[2] = target: T1, mesothelin (MSLN) on MSLN-expressing …; remark: listed apart in the source
[3] = target: T2, MSLN (form in the assay not stated) (UniProt Q13421 296-580); experiment: method not stated; reference v29191
T2 sequence (Q13421 other isoform, or with tags, fused parts or gaps limits assumed): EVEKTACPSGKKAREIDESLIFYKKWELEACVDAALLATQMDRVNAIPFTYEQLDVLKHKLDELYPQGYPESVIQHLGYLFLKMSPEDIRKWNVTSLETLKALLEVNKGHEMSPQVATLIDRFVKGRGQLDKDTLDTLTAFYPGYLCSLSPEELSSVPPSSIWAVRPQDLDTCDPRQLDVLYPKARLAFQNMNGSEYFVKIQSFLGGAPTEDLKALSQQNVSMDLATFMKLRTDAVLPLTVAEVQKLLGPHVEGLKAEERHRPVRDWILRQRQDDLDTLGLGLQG

[4] = target: T2, MSLN (form in the assay not stated); experiment: method and antigen form not stated in Table 12
[5] = target: T1, mesothelin (MSLN) on MSLN-expressing …; remark: listed apart in the source
[6] = target: T2, MSLN (form in the assay not stated); experiment: method not stated; reference v31805
[7] = target: T3, CD3 on CD3+ Jurkat cells and primary human T cells (human, UniProt P07766 23-207); experiment: cell ELISA on whole CD3+ Jurkat cells (HRP anti-human IgG Fc, A 450nm)
T3 construct: whole, on cells; also called native CD3; CD3ε

[8] = target: T1, mesothelin (MSLN) on MSLN-expressing …; experiment: cell-based or functional assay
[9] = target: T1, mesothelin (MSLN) on MSLN-expressing …; experiment: cell-based or functional assay; remark: listed apart in the source
[10] = target: T3, CD3 on CD3+ Jurkat cells and primary …; experiment: whole-cell ELISA on CD3+ Jurkat cells, apparent affinity
[11] = target: T3, CD3 on CD3+ Jurkat cells and primary …; experiment: flow cytometry on primary human T cells, apparent affinity
[12] = target: T1, mesothelin (MSLN) on MSLN-expressing …; experiment: flow cytometry on MSLN+ OVCAR-3 cells (Alexa Fluor 647 anti-IgG-Fc, MFI)
[13] = target: B3; experiment: SPR; reference v31805
[14] = target: T4, Recombinant MSLN Fc fusion protein (R&D: 3265-MS) (UniProt Q13421 296-580); experiment: SPR; reference v31805
T4 construct: also called recombinant MSLN fusion protein

[15] = target: B3; experiment: SPR, BioRad ProteOn XPR36, 25 C, CD3 epsilon/delta-Fc captured on anti-Fc chip
[16] = target: T3, CD3 on CD3+ Jurkat cells and primary …; experiment: flow cytometry on human pan T cells, CD4+ gate (Alexa Fluor 647 anti-IgG-Fc, MFI)
Target sequence in this assay (P07766 23-207): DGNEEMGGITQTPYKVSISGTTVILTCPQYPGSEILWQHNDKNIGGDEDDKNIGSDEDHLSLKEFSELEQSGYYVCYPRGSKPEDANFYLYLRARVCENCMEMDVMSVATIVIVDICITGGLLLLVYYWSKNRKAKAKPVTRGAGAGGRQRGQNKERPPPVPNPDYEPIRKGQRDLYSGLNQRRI

[17] = target: T1, mesothelin (MSLN) on MSLN-expressing …; experiment: whole-cell flow cytometry on OVCAR-3 cells, apparent affinity
[18] = target: B3; experiment: assay not given; matches Table 15 (SPR); reference v31805
[19] = target: T4, Recombinant MSLN Fc fusion protein …; experiment: as above
[20] = target: T3, CD3 on CD3+ Jurkat cells and primary …; experiment: flow cytometry on primary human T cells; reference v29191
Target sequence in this assay (P07766 23-207): as above

[21] = target: T3, CD3 on CD3+ Jurkat cells and primary …; experiment: flow cytometry on primary human T cells; reference v31805
Target sequence in this assay (P07766 23-207): as above

[22] = target: T3, CD3 on CD3+ Jurkat cells and primary …; experiment: flow cytometry on human pan T cells, CD4+ and CD8+ cells together (Alexa Fluor 647 anti-IgG-Fc, MFI)
Target sequence in this assay (P07766 23-207): as above

[23] = target: T3, CD3 on CD3+ Jurkat cells and primary …; experiment: flow cytometry on human pan T cells, CD8+ gate (Alexa Fluor 647 anti-IgG-Fc, MFI)
Target sequence in this assay (P07766 23-207): as above

[24] = target: T3, CD3 on CD3+ Jurkat cells and primary …; experiment: whole-cell flow cytometry on primary human T cells, apparent affinity
Target sequence in this assay (P07766 23-207): as above

[25] = target: T4, Recombinant MSLN Fc fusion protein …; experiment: SPR, BioRad ProteOn XPR36, 25 C, MSLN-Fc captured on anti-Fc chip
[26] = target: T1, mesothelin (MSLN) on MSLN-expressing …; experiment: cell-based or functional assay; remark: listed apart in the source
[27] = target: T5, v31805, MH6T-TriTAC benchmark construct [MSLN (VHH) x Alb (VHH) x CD3 (scFv)]; experiment: SPR, BioRad ProteOn XPR36, 25 C, CD3 epsilon/delta-Fc captured on anti-Fc chip
[28] = target: T5, v31805, MH6T-TriTAC benchmark construct …; experiment: SPR, BioRad ProteOn XPR36, 25 C, CD3 epsilon/delta-Fc captured on anti-Fc chip; value as printed, implausible for ka
[29] = target: T1, mesothelin (MSLN) on MSLN-expressing …; experiment: assay not given; matches Table 16 (OVCAR-3 cells); reference v32523

Binder: B1
- EC50 [1]: 0.4 nM
- EC50 (read off the curve) [2]: ~0.5 nM
- fold lower binding affinity vs v29191 [3]: ~45 fold
- Affinity to MSln [4]: 0.9 nM
- Kd [5]: ~0.47 nM
- fold lower affinity vs v31805 [6]: ~20 fold
- EC50 (read off the curve) [7]: ~9 nM
- maximum killing of BxPC3 cells [8]: 75%
- IC50 of T cell-dependent cytotoxicity on OVCAR-3 cells (pan T cells, E:T 5:1, 72 h) [9]: 0.05 pM
- EC50 [10]: 17.7 nM
- EC50 [11]: 58.8 nM

Binder: B2
- EC50 (read off the curve) [12]: ~3 nM
- fold lower affinity vs v31805 [13]: 53 fold
- fold lower affinity vs v31805 [14]: 32 fold
- Kd [15]: 40.1 nM
- koff [15]: 0.0112 s⁻¹
- kon [15]: 279000 M⁻¹ s⁻¹
- EC50 (read off the curve) [16]: ~60 nM
- EC50 [17]: 2.8 nM
- fold lower affinity vs v31805 [18]: ~50 fold
- fold lower affinity vs v31805 [19]: ~30 fold
- fold lower apparent affinity vs v29191 [20]: ~2.7 fold
- fold lower apparent affinity vs v31805 [21]: ~8.6 fold
- EC50 (read off the curve) [22]: ~60 nM
- EC50 (read off the curve) [23]: ~80 nM
- EC50 [24]: 50.5 nM
- Kd [25]: 1.01 nM
- koff [25]: 0.000719 s⁻¹
- kon [25]: 714000 M⁻¹ s⁻¹
- IC50 of T cell-dependent cytotoxicity on HCT116 cells (pan T cells, E:T 5:1, 72 h) [26]: 0.0011 nM

Binder: B3
- Kd [27]: 0.75 nM
- koff [27]: 0.00379 s⁻¹
- kon [28]: 5.04e+06 M⁻¹ s⁻¹

Binder: B4
- Affinity to MSln [4]: 0.02 nM
- EC50 (read off the curve) [16]: ~20 nM
- EC50 [17]: 0.4 nM
- EC50 (read off the curve) [22]: ~20 nM
- IC50 of T cell-dependent cytotoxicity on OVCAR-3 cells (pan T cells, E:T 5:1, 72 h) [9]: 0.89 pM
- EC50 (read off the curve) [23]: ~30 nM
- EC50 [24]: 18.7 nM
- fold higher relative affinity vs v32523 [29]: 7 fold
